From article PMC9017343 (2022)

Tests used:
[1] = biological target: T1, SARS-CoV S trimer (ectodomain) (SARS-CoV, UniProt P59594 14-1195); experiment: SPR
[2] = biological target: T1, SARS-CoV S trimer (ectodomain); experiment: SPR; remark: listed apart in the source

B1: COVA1-16 (antibody, V domains shown)
VH: QVQLVQSGAEVKKPGASVKVSCKASGYTFTSYYMHWVRQAPGQGLEWMGIINSSGGSTSYAQKFQGRVTMTRDTSTSTVYMELSSLRSEDTAVYYCARPPRNYYDRSGYYQRAEYFQHWGQGTLVTVSS
VL: DIQLTQSPSSLSASVGDRVTITCQASQDISNYLNWYQQRPGKAPKLLIYDASNLETGVPSRFSGSGSGTDFTFTISSLQPEDIATYYCQQYDNPPLTFGGGTKLEIK
Kd [1]: 19.5 nM
koff [2]: 0.0032 s⁻¹
